# Test results taken from EP2747783B1.
# What was measured:
# [1] = biological target: human c-Met, cell membrane expressed (A549, BxPC-3, myeloma cells) (human) (UniProt P08581); assay: cell-based or functional assay
# [2] = biological target: human c-Met, cell membrane expressed (A549, BxPC-3, myeloma cells) (human) (UniProt P08581); assay: flow cytometry; competition with 1 nM biotinylated hHGF on A549 cells
# [3] = biological target: cynomolgus c-Met expressed on BAF3 cells (cynomolgus monkey); assay: flow cytometry; competition with 0.5 nM biotinylated HGF on BAF3 cells with cynomolgus c-Met
# cynomolgus c-Met expressed on BAF3 cells (cynomolgus monkey), sequence (A0M8R7 25-1381 S170N/I621T limits assumed, form in doubt): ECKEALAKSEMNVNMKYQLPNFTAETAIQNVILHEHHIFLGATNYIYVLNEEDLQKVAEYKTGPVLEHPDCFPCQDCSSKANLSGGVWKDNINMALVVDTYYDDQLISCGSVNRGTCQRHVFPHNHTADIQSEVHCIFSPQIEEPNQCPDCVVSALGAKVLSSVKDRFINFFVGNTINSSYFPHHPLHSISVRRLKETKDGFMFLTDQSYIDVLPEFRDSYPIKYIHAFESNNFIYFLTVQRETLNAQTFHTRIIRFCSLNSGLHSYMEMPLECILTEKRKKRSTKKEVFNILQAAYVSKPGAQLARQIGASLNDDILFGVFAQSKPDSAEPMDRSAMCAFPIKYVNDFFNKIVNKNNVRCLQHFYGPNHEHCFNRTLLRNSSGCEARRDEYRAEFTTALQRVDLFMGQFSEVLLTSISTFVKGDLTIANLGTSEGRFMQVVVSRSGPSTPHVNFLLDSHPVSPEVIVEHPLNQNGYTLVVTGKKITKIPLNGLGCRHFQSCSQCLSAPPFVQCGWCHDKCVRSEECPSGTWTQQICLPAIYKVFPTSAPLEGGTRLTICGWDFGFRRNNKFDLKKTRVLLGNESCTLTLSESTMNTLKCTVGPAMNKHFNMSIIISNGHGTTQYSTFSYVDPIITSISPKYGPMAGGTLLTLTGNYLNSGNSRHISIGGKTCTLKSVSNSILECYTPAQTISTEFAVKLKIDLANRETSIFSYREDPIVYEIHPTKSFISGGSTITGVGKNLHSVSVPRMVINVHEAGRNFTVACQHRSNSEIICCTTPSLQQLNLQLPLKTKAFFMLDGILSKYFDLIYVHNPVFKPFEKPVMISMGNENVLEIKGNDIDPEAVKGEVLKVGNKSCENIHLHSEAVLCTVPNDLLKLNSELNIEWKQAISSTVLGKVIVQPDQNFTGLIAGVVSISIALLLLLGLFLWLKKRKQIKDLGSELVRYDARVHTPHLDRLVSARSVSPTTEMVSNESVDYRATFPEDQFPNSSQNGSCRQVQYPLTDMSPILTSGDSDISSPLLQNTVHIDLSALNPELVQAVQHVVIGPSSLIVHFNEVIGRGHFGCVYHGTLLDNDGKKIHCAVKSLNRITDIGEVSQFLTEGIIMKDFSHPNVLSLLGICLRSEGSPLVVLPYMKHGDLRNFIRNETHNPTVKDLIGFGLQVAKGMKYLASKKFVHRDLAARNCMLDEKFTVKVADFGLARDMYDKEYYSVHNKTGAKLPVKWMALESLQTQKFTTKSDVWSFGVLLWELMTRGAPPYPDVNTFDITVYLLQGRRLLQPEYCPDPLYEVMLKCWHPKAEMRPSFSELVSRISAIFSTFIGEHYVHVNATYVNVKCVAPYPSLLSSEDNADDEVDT
# human c-Met, cell membrane expressed (A549, BxPC-3, myeloma cells) (human), sequence (P08581 25-1390 limits assumed, form in doubt): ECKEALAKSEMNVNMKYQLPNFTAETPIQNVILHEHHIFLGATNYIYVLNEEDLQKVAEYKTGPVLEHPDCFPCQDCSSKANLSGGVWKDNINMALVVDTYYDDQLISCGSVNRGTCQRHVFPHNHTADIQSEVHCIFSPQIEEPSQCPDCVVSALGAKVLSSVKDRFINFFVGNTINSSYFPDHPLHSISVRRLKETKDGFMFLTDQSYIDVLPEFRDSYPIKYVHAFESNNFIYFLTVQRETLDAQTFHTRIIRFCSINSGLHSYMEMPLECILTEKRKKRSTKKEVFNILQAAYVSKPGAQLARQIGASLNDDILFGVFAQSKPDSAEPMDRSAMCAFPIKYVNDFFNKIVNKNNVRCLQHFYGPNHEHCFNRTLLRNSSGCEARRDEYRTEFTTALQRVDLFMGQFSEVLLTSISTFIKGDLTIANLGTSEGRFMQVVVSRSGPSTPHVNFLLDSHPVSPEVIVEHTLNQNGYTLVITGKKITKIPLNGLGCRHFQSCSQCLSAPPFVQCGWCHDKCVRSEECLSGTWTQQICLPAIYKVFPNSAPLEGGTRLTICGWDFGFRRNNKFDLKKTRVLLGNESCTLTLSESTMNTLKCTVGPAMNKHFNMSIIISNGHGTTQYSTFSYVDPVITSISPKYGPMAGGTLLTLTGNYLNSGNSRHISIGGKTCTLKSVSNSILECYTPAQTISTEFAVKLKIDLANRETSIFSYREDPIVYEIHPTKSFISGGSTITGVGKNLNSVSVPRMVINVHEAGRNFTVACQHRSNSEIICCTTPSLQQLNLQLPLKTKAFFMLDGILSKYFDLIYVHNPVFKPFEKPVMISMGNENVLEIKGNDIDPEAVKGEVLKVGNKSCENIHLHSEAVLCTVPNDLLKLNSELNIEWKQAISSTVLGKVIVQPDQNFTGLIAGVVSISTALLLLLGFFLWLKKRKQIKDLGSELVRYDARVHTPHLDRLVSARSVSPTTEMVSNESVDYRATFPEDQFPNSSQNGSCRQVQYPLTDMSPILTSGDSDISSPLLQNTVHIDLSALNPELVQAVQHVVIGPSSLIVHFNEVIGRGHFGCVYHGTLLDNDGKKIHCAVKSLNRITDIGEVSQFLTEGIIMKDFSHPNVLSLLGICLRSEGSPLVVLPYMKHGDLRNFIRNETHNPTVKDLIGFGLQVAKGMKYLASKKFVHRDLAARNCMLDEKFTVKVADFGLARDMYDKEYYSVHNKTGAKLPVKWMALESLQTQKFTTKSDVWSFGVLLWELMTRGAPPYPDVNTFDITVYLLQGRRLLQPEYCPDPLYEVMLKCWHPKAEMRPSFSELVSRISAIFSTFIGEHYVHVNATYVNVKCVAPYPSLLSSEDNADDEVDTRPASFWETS
Substance,"c-Met phosphorylation without HGF (agonistic activity), A549 cells [1] [nM]",% inhibition [2] [%],% inhibition [3] [%],"% inhibition, HGF-dependent A549 cell migration [1] [%]","% inhibition, HGF-dependent c-Met phosphorylation, Experiment 1 [1] [%]","% inhibition, HGF-dependent c-Met phosphorylation, Experiment 2 [1] [%]","% inhibition, HGF-dependent proliferation of BxPC3 cells [1] [%]","IC50, HGF-dependent c-Met phosphorylation, experiment 1 [1] [nM]","IC50, HGF-dependent c-Met phosphorylation, experiment 2 [1] [nM]","IC50 ratio to 5D5 Fab, HGF-dependent A549 cell migration [1]","IC50 ratio to 5D5 Fab, HGF-dependent c-Met phosphorylation, Experiment 1 [1]","IC50 ratio to 5D5 Fab, HGF-dependent c-Met phosphorylation, Experiment 2 [1]","IC50 ratio to 5D5 Fab, HGF-dependent proliferation of BxPC3 cells [1]"
anti-c-Met antibody 5D5,37,100,100,,,,,,,,,,
anti-c-Met antibody fragment 5D5 Fab from mAb,,,,112,96.4,95.9,94.8,10.4,9.09,1,1,1,1
